Earlier results, collected in patent publication EP4725499A1, “M[…] PROTEIN FOR IMM[…] ALZHEIMER'S DISEASE” (Centro De Neurociencias De Cuba, priority 2023, dated 2024).

Molecular target: Aβ (Homo sapiens, UniProt P05067)
Sequence (P05067 672-713 limits assumed): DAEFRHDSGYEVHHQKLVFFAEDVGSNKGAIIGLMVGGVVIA

AN1792: AN1792 vaccine, consisting of a synthetic Aβ1-42 peptide
time after which responders maintained an anti-AN-1792 antibody response (follow-up of responders, 1-3 injections, low titers): approximately 4.6 years
patients who developed an anti-Aβ antibody response (patients with mild to moderate AD, phase II): 19.7%
progression of cognitive decline (responders compared with placebo-treated patients, follow-up): significantly reduced
